# B1: bacteriophage Qβ coat protein, wild-type (133 amino acids, lacking the A1 extension) (natural protein)
# chain: MAKLETVTLGNIGKDGKQTLVLNPRGVNPTNGVASLSQAGAVPALEKRVTVSVSQPSRNRKNYKVQVKIQNPTACTANGSCDPSVTRQAYADVTFSFTQYSTDEERAFVRTELAALLASPLLIDAIDQLNPAY
# Target: the molecule itself
# Experiment: cryo-EM structure
protein,measurement,value
B1,binding result,binds
